How the values were obtained:
uteroferrin = uteroferrin (UniProt P09889)
UniProt P09889, sequence (P09889 22-340): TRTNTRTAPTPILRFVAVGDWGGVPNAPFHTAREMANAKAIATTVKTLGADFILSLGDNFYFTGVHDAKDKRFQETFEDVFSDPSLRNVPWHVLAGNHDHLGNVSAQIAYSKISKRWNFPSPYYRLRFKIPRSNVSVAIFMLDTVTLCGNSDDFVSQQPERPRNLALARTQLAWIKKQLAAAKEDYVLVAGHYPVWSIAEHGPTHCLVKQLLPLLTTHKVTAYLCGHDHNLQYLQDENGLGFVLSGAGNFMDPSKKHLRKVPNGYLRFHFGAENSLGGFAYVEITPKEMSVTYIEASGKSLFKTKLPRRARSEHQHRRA

With “bovine GlcNAc-phosphotransferase (UDP-N-acetylglucosamine: lysosomal enzyme N-Acetylglucosamine-1-phosphotransferase)” as the substance, how does the “Km as acceptor for transfer of GlcNAc-1-P” value (“Km … of GlcNAc-1-P” below) (RNAse B) read?
The value was “the Km was not reached at the solubility limit of the protein (at 600 µM)”.

And the “Km … of GlcNAc-1-P” value (cathepsin D)?
Its value is “Both uteroferrin and cathepsin D are effectively utilized as acceptors by purified GlcNAc-phosphotransferase with Kms below 20 µM”.

What about the “Km … of GlcNAc-1-P” value (uteroferrin) of the same substance?
Its value is “Both uteroferrin and cathepsin D are effectively utilized as acceptors by purified GlcNAc-phosphotransferase with Kms below 20 µM”.

From patent US20030148460
